Values of other authors in PMC12990809.

Key:
Test in all cases: pulldown
Details in all cases: 20 nM protein, 1.5 uM RNA pool; 20 mM HEPES pH 7.8, 70 mM KCl, 10 mM NaCl, 10% glycerol, 2 mM DTT, 0.1 ug/uL BSA; 30 min, 4 C (protocol of this paper; not …); cited from earlier work
[1] = molecular target: Khdrbs1 (Mus musculus) (UniProt Q60749)
[2] = molecular target: RBM5 (Homo sapiens) (UniProt P52756)
[3] = molecular target: T1, SART3 (Homo sapiens) (UniProt Q15020)
T1 sequence: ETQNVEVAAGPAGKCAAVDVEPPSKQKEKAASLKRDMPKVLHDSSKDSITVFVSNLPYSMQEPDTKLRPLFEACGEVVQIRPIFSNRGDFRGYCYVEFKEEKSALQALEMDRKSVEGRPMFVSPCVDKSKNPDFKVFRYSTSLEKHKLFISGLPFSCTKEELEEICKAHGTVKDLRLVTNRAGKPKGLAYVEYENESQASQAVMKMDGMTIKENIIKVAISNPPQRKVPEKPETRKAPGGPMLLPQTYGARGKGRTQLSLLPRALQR

[4] = molecular target: T2, SF2 (Drosophila melanogaster) (UniProt Q7KJ21)
T2 sequence: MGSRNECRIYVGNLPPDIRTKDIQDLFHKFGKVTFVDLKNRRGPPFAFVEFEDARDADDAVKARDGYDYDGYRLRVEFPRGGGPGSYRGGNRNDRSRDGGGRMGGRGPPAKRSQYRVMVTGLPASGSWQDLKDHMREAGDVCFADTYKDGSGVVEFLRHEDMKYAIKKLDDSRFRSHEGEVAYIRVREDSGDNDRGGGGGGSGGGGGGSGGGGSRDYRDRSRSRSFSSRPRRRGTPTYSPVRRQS

[5] = molecular target: SRSF9 (Homo sapiens) (UniProt Q13242)
[6] = molecular target: T3, tiar-3 (Caenorhabditis elegans) (UniProt Q93194)
T3 sequence: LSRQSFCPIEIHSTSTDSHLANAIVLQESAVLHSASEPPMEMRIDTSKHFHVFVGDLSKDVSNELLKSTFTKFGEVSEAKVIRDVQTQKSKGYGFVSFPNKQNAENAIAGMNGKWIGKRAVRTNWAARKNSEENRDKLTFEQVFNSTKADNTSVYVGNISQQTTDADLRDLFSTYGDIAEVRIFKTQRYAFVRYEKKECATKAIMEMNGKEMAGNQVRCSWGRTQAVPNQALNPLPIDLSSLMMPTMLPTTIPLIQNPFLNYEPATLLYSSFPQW

[7] = molecular target: T4, RBM41 (Homo sapiens) (UniProt Q96IZ5)
T4 sequence: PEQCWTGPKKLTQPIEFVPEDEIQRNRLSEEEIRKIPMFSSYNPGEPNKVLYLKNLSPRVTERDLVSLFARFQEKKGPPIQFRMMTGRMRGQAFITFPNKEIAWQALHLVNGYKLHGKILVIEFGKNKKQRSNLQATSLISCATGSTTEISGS

[8] = molecular target: PABPC4 (Homo sapiens) (UniProt Q13310)
[9] = molecular target: T5, pum (Drosophila melanogaster) (UniProt P25822)
T5 sequence: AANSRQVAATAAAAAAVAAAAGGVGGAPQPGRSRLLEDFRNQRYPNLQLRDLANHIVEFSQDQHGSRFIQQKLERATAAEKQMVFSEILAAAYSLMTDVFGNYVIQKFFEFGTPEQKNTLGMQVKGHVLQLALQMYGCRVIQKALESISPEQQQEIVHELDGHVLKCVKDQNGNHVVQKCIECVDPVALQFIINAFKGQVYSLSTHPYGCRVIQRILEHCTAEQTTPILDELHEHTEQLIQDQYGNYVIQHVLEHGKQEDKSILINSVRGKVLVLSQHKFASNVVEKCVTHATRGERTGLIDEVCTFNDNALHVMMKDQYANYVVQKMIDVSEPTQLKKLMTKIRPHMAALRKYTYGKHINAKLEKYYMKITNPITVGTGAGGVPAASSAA

[10] = molecular target: T6, RBMS3 (Homo sapiens) (UniProt Q6XE24)
T6 sequence: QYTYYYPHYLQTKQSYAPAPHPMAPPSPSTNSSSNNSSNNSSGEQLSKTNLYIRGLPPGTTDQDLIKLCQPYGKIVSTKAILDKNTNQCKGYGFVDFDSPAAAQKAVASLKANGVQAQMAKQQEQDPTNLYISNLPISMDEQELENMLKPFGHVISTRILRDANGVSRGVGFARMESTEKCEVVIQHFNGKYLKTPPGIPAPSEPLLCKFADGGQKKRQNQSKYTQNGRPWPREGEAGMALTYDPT

[11] = molecular target: T7, Rbp1 (Drosophila melanogaster) (UniProt Q02427)
T7 sequence: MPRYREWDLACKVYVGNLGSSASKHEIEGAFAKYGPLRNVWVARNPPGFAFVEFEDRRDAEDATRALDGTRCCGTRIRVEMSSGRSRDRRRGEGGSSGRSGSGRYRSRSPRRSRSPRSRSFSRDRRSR

[12] = molecular target: T8, RBM4 (Homo sapiens) (UniProt Q9BWF3)
T8 sequence: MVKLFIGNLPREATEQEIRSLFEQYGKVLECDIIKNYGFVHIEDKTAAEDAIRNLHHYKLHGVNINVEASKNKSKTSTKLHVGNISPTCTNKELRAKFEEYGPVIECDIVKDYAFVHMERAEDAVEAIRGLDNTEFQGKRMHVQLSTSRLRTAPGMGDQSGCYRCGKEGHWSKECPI

[13] = molecular target: T9, SF1 (Drosophila melanogaster) (UniProt A9UNA1)
T9 sequence: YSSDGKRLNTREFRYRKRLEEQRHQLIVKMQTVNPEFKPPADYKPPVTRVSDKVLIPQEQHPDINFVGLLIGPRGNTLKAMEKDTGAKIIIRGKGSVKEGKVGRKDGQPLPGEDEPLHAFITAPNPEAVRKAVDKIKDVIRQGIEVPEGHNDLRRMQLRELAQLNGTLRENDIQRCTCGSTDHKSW

[14] = molecular target: T10, RBM28 (Homo sapiens) (UniProt Q9NW13)
T10 sequence: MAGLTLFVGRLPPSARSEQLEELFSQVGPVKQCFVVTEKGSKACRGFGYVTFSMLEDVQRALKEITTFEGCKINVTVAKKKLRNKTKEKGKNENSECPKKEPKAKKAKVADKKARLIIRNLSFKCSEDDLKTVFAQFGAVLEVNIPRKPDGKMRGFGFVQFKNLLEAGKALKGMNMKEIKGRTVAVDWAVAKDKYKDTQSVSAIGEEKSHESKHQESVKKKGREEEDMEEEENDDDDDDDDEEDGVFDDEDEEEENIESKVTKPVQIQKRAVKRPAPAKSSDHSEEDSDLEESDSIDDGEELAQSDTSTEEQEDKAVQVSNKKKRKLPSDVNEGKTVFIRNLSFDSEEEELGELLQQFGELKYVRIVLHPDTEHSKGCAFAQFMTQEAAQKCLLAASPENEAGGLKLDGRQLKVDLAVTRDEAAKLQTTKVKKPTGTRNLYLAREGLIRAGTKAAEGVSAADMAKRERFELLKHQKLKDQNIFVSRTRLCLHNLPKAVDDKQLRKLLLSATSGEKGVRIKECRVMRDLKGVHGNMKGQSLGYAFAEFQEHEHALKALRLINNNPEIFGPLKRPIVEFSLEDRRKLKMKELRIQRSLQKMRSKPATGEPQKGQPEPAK

[15] = molecular target: T11, SAMD4A (Homo sapiens) (UniProt Q9UPU9)
T11 sequence: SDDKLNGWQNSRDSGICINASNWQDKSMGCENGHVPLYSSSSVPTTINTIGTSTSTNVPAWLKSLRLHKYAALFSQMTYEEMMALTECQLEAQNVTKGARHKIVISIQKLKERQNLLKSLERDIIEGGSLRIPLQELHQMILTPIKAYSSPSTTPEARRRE

[16] = molecular target: T12, Rbm38 (Mus musculus) (UniProt Q62176)
T12 sequence: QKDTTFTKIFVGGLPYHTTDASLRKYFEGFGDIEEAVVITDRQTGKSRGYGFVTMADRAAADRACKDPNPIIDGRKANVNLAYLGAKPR

[17] = molecular target: T13, shep (Drosophila melanogaster) (UniProt Q8MSV2)
T13 sequence: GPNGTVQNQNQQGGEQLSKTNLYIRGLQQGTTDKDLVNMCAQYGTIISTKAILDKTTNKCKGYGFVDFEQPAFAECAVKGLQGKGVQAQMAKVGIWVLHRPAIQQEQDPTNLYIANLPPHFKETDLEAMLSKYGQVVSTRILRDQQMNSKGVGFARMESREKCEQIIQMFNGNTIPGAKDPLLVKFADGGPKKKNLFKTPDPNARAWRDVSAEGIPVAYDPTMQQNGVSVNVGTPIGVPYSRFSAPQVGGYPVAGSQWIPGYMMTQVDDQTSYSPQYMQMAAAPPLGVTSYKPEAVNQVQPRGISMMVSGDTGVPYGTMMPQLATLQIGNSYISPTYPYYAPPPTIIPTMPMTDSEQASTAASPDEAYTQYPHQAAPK

[18] = molecular target: T14, RBM46 (Homo sapiens) (UniProt Q8TBY0)
T14 sequence: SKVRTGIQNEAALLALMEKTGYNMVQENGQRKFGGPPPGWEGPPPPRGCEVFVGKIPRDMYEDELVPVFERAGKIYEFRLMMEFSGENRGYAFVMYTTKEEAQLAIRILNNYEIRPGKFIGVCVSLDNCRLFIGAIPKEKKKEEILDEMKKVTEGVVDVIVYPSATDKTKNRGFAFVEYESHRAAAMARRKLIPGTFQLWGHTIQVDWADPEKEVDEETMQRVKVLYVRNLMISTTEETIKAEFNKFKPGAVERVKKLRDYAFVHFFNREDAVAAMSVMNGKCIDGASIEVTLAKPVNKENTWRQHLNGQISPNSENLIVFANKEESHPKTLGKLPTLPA

[19] = molecular target: T15, QKI (Homo sapiens) (UniProt Q96PU8)
T15 sequence: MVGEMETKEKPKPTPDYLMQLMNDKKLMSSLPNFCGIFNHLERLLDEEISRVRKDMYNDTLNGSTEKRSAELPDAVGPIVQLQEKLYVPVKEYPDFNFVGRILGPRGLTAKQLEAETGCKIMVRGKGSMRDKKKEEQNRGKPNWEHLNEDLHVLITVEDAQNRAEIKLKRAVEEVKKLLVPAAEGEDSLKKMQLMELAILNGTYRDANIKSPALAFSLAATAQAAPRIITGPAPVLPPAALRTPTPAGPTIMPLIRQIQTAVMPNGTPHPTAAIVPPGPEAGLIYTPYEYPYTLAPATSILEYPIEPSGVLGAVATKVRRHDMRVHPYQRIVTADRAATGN

[20] = molecular target: T16, RBM3 (Homo sapiens) (UniProt P98179)
T16 sequence: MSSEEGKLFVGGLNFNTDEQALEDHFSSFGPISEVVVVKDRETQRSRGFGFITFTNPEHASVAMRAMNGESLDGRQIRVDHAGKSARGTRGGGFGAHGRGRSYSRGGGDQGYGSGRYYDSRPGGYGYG

[21] = molecular target: T17, CG14718 (Drosophila melanogaster) (UniProt Q7K543)
T17 sequence: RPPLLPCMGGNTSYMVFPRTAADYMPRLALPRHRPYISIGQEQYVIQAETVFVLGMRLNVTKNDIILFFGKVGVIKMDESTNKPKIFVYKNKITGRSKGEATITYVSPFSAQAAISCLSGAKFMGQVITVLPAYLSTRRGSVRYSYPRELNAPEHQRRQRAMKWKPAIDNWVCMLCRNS

[22] = molecular target: T18, Rsf1 (Drosophila melanogaster) (UniProt Q24491)
T18 sequence: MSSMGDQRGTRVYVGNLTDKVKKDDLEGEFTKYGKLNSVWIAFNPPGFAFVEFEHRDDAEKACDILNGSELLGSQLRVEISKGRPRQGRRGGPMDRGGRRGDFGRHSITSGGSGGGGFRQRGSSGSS

SRSF9 (Homo sapiens), sequence (Q13242 whole entry): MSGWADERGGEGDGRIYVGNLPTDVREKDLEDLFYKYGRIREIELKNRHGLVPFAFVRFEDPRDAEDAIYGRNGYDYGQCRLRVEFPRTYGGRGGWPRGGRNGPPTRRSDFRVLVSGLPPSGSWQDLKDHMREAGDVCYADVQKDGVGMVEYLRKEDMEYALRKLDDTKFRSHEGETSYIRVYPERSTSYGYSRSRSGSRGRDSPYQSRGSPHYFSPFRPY
PABPC4 (Homo sapiens), sequence (Q13310 1-414): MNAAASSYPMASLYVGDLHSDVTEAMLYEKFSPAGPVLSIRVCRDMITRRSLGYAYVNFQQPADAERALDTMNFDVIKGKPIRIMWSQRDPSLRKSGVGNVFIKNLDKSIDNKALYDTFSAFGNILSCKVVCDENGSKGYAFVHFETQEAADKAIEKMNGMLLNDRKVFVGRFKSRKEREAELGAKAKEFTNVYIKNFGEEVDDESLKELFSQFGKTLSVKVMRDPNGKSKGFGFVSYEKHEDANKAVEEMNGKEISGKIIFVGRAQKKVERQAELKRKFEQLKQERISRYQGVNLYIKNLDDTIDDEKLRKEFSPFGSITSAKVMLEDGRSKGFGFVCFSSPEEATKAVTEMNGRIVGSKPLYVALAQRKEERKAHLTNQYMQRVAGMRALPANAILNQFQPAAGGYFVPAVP
RBM5 (Homo sapiens), sequence (P52756 1-546): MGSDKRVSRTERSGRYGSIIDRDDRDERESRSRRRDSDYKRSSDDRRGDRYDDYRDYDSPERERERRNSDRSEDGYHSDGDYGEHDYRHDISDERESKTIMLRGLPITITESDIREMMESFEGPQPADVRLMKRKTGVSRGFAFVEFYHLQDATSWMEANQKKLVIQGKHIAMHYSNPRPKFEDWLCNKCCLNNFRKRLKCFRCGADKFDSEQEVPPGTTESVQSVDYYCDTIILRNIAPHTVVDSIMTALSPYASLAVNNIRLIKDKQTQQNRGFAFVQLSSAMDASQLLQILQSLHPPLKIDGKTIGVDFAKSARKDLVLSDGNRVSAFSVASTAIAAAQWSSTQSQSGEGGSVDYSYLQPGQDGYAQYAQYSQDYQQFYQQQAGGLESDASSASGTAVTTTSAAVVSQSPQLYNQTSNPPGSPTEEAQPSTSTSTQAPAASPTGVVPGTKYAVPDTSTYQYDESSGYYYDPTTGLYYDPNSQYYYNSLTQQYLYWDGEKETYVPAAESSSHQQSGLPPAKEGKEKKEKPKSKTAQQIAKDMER
Khdrbs1 (Mus musculus), sequence (Q60749 3-443): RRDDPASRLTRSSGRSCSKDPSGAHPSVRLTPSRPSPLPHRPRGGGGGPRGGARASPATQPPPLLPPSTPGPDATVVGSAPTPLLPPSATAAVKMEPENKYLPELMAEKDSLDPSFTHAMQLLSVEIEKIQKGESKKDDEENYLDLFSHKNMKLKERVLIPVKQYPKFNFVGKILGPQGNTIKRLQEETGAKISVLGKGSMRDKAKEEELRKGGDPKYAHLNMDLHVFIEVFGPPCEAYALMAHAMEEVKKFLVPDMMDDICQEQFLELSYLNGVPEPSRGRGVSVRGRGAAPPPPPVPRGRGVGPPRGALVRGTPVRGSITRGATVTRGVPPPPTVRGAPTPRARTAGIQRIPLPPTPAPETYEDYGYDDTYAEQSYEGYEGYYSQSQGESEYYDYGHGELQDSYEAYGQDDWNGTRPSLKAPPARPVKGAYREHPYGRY

For UAAAAG [RNAcompete motif RNCMPT00062], the binding signal (z-score (mean of top ten 7-mers)) [1] is listed as 7.39.
For GAAGGNA [RNAcompete motif RNCMPT00055], the binding signal (z-score (mean of top ten 7-mers)) [2] is listed as 6.04.
In the case of GAAAAA [RNAcompete motif RNCMPT00064], the binding signal (z-score (mean of top ten 7-mers)) [3] is listed as 11.1.
In the case of GGAGGA [RNAcompete motif RNCMPT00066], the binding signal (z-score (mean of top ten 7-mers)) [4] is listed as 14.1.
In the case of AUGGA [RNAcompete motif RNCMPT00067], the binding signal (z-score (mean of top ten 7-mers)) [5] is given as 6.71.
In the case of UUUUUU [RNAcompete motif RNCMPT00005], the binding signal (z-score (mean of top ten 7-mers)) [6] is given as 11.
For AUACAU [RNAcompete motif RNCMPT00053], the binding signal (z-score (mean of top ten 7-mers)) [7] is given as 10.7.
In the case of AAAAAA [RNAcompete motif RNCMPT00043], the binding signal (z-score (mean of top ten 7-mers)) [8] is listed as 12.2.
In the case of UGUACAU [RNAcompete motif RNCMPT00046], the binding signal (z-score (mean of top ten 7-mers)) [9] is listed as 28.5.
In the case of UAUAUA [RNAcompete motif RNCMPT00173], the binding signal (z-score (mean of top ten 7-mers)) [10] is given as 8.57.
In the case of ACAACG [RNAcompete motif RNCMPT00058], the binding signal (z-score (mean of top ten 7-mers)) [11] is listed as 9.03.
For CGCGCG [RNAcompete motif RNCMPT00113], the binding signal (z-score (mean of top ten 7-mers)) [12] is listed as 17.7.
For UCUNAU [RNAcompete motif RNCMPT00065], the binding signal (z-score (mean of top ten 7-mers)) [13] is given as 9.28.
For GAGUAG [RNAcompete motif RNCMPT00049], the binding signal (z-score (mean of top ten 7-mers)) [14] is given as 7.8.
For GCUGGNC [RNAcompete motif RNCMPT00063], the binding signal (z-score (mean of top ten 7-mers)) [15] is given as 15.9.
In the case of UUUNUGU [RNAcompete motif RNCMPT00051], the binding signal (z-score (mean of top ten 7-mers)) [16] is listed as 17.
For UAUAUUA [RNAcompete motif RNCMPT00175], the binding signal (z-score (mean of top ten 7-mers)) [17] is listed as 7.37.
For AAUCAA [RNAcompete motif RNCMPT00054], the binding signal (z-score (mean of top ten 7-mers)) [18] is given as 8.4.
For ACUAACC [RNAcompete motif RNCMPT00047], the binding signal (z-score (mean of top ten 7-mers)) [19] is given as 6.41.
For AGAUAC [RNAcompete motif RNCMPT00050], the binding signal (z-score (mean of top ten 7-mers)) [20] is listed as 7.1.
For CCAGAUG [RNAcompete motif RNCMPT00006], the binding signal (z-score (mean of top ten 7-mers)) [21] is given as 11.9.
For ACGACGA [RNAcompete motif RNCMPT00061], the binding signal (z-score (mean of top ten 7-mers)) [22] is listed as 10.6.
